Measurements as given in publication PMC11034791.

Target: Neuropeptide Y (NPY) (UniProt P01303 29-64)
Assay: electrochemical impedance spectroscopy

B1: NPY aptamer (80-base ssDNA) (ssDNA)
DNA: AGCAGCACAGAGGTCAGATGCAAACCACAGCCTGAGTGGTTAGCGTATGTCATTTACGGACCTATGCGTGCTACCGTGAA
modifications: 5' disulfide C6 (reduced to thiol), immobilized on Au
- binding result: binds
